The target of assay [1] is T1, hemagglutinin ectodomain of influenza virus H1/PR/8/34 (influenza virus H1/PR/8/34, UniProt P03452 18-528).
T1 construct: extracellular domain; also called HA H1/PR/8/34
Kind of assay: immunoassay or flow cytometry. A general note: A flow cytometer gives signals particle by particle.

In another assay the target is T2, human ADAMTS13 (human, UniProt Q76LX8 75-1427).
T2 construct: ELISA: full-length recombinant ADAMTS13 coated on plates (Technoclone); Activity assays: endogenous ADAMTS13 of normal human plasma; also called full-length human recombinant ADAMTS13; VWF-cleaving protease
T2 sequence (looked up): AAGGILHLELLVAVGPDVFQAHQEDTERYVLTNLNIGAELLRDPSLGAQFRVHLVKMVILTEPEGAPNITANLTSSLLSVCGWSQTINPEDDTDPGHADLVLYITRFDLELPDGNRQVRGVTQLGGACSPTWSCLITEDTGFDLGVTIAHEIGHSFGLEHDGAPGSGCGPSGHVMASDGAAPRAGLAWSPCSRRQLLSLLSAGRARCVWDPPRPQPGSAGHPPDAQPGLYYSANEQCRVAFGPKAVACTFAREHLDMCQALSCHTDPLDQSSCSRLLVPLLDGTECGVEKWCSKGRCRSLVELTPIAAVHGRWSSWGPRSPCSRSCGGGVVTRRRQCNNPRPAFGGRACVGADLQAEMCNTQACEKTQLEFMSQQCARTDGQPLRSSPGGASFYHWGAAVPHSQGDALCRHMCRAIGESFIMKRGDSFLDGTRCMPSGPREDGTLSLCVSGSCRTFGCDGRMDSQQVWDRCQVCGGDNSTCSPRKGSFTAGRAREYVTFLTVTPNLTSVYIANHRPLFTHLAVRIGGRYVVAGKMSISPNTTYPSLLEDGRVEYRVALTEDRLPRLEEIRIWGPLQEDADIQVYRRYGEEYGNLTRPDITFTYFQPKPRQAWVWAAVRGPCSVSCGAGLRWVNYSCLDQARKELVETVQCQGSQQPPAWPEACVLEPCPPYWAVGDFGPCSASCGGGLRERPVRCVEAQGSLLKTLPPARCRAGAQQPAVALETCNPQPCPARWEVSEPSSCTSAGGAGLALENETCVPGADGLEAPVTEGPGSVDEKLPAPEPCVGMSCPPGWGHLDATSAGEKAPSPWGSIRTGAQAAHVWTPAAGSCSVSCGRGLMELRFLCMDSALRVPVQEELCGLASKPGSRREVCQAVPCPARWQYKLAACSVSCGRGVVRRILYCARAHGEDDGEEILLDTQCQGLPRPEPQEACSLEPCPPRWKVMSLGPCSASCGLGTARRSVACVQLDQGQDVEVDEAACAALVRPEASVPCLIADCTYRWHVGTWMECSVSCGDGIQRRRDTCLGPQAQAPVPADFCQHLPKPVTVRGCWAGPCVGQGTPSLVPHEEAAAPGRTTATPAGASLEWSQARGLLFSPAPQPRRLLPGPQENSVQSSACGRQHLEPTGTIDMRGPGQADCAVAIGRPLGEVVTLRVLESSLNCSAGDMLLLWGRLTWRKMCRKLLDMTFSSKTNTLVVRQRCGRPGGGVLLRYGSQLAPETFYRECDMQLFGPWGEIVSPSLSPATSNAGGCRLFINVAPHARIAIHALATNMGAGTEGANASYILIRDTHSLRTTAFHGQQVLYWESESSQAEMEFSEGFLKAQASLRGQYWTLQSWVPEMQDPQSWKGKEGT
Kind of assay: phage ELISA on ADAMTS13-coated plates (positive: >10-fold absorbance above background). (In general: An ELISA detects its analyte on a solid surface through an enzyme-linked reagent.)

T1 sequence (P03452 18-528): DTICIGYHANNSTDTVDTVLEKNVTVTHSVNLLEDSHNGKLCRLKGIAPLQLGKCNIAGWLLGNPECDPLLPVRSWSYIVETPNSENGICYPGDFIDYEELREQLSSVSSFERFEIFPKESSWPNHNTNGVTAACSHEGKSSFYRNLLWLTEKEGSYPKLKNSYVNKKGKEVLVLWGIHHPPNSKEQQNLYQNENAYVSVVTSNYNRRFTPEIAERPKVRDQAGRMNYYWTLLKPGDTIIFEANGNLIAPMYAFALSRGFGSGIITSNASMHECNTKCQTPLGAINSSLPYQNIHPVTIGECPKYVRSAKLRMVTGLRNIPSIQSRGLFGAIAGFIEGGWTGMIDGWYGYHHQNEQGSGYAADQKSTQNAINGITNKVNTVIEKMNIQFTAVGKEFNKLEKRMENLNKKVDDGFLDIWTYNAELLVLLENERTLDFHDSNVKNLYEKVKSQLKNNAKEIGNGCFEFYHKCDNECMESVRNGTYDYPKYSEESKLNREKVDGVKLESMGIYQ

B1: scFv 1-303 (scFv, V domains shown)
VH: QVQLVQSGAEVKKFGSSVKVSCKASGGTFSSYTMSWVRQAPGQGLEWMGSFIPILERANYAQKFQGRVTLTADKSTSTAYMELGSLRSEDTAVYYCARDLGDFGDSWGQGTLVTVSS
VL: ELELTQPPSVSVAPGKTARITCGGNNIGSKSVHWYQQKPGQAPVLVVYDDSDRPSGIPERFSGSNSGNTATLTISRVEAGDEADYYCQVWDSSSDHYVFGTGTKVTVL
In the case of B1, the binding result in assay [1] is “no binding”; in the assay with human ADAMTS13, “binds”.

B2: scFv 1-406 (scFv, V domains shown)
VH: QVQLVQSGAEVKKFGSSVKVSCKASGGMFSSYTISWVRQGPGQGLEWMGSFIPILERANYAQKFQGRVSFTADKSTSTAYMELGSLTSEDTAVYFCARDVGDFGDSWGQGTLVTVSS
VL: ELELTQPPSVSVFPGQTARITCSGDTLPKQYGNWYQQKPGQAPVVVIYKDTERPSGIPERFSGSSSGTTATLTISGVQAEDEADYYCQSADSNDWVLFGGGTKLTVL
B2: the binding result in the assay with human ADAMTS13 is on record as “binds”.

B3: scFv z1-303 (scFv, V domains shown)
VH: QVQLQESGPGLVRPSQTLSLTCAISGDSVSNNNAAWNWIRQSPSRGLEWLGRTFYRSRWYNDYAVSVKSRIIINPDTSKNQFSLDLTSVTPEDTAVYFCAREGQWLPNYFDPWGQGTLVTVSS
VL: ELVLTQPPSVSVAPGQTARITCGGNNIGSKSVHWYQQKPGQAPVLVVYDDSDRPSGIPERFSGSNSGNTATLTISGVEVGDEADYYCQVWDSSRDHVVFGGGTELTVL
As to B3, the binding result with human ADAMTS13 is “binds”.

B4: scFv 2-103 (scFv, V domains shown)
VH: QVQLVQSGAEVKKPGSSVKVSCKASGGTFSSYDINWVRQAPGQGLEWMGSIIPILGISNYAQKFQGRVTITADKSTSTAYMELSSLRSEDTAVYYCARDQGYANNYGAYWGQGTLVTVSS
VL: ELVLTQPPSVSVAPGQTARITCGGNNIGSKSVHWYQQKPGQAPVVVVYDDSDRPSGIPERFSGSNSGNTATLTISRVEAGDEADYYCQVWDSSSDHWVFGGGTELTVL
For B4, the binding result in assay [1] was “no binding”.

B5: scFv 4-307 (scFv, V domains shown)
VH: QVQLVQSGAEVKKPGSSVKVSCKASGGTFSTYTINWMRQAPGQGLEWMGRIIPMFGTANYAQKFRGRVTITADESTSTAYMELSSLISEDTAIYYCARSGYSDAFDIWGQGTMVTVSS
VL: ELVLTQPPSVSVAPGTTARITCGGNNIGSKSVHWYQQKPGQAPVLVIYYDSDRPSGIPERFSGSNSGNTATLTISRVEAGDEADYYCQVWDSSSDQGVFGGGTQLTVL
B5: in the assay with human ADAMTS13, the binding result is “binds”.

B6: scFv 2-102 (scFv, V domains shown)
VH: QVQLVQSGAEVKKPGSSVKVSCRASGGTFSSYTINWVRQAPGQGLEWMGRVVPILGVTNYAQKFQGRVTITADKSTSTAYMELSSLRSEDTAVYYCARDKGYDNNYGAYWGQGTLVTVSS
VL: ELVVTQPPSVSVAPGQTARITCGGNNIGSINVHWYQQKPGQAPVLVVYDDSARPSGIPERFSGSNSGNTATLTISRVEAGDEADYYCQVWDSRSDYWVFGGGTKVTVL
For B6, the binding result in assay [1] was “no binding”.

B7: scFv 3-305 (scFv, V domains shown)
VH: QVQLVQSGAEVKRPGSSVKVSCKASGNTFSNYHINWVRQAPGQGLQWMGGIIPILGRTNYAQNFQGRVTITTDESTNTAYMELTSLRSEDTAVYYCAREARDSFDFWGQGTMVTVSS
VL: ELVLTQPPSVSVAPGKTARITCGGNNIGSKSVHWYQQKPGQAPVLVVYDDSDRPSGIPERFSGSNSGNTATLTISRVEAGDEADYYCQVWDSSSDHWVFGGGTQLTVL
B7: the binding result with human ADAMTS13 is recorded as “binds”.

B8: scFv 1-438 (scFv, V domains shown)
VH: QVQLVQSGAEVKKPGSSVKVSCKASGGTFSNYDITWVRQAPGQGLEWVGKVIPILDVTNYAQKFQGRVTITADKSTSTAYMELSNLTSEDTAVYFCARFLWGLDVWGQGTMVTVSS
VL: ELVLTQPPSVSVAPGQTARITCGGNNIGSKSVHWYQQKPGQAPVLVVYDDSDRPSGIPERFSGSNSGNTATLTISRVEAGDEADYYCQVWDSSSDHKVFGGGTELTVL
Turning to B8, the binding result in assay [1] was “no binding”; in the assay with human ADAMTS13, “binds”.

B9: scFv 1-434 (scFv, V domains shown)
VH: QVQLVQSGAEVKKPGSSVKVSCKASGGSFSDYTIIWLRQARGHGLEWMGKIVPILGVTTYAQEFQGRITITADRSTSTAYMELSSLRSEDTAVYYCARFLWGLDVWGQGTTVTVSS
VL: ELVLTQPPSVSVAPGQTARITCGGNNIGSKSVHWYQQKPGQAPVLVVYDDSDRPSGIPERFSGSNSGNTATLTISRVEAGDEADYYCQVWDSSSDHVVFGGGTELTVL
Take B9: the binding result was “no binding” in assay [1] and “binds” with human ADAMTS13.

B10: scFv 3-405 (scFv, V domains shown)
VH: QVQLVQSGAEVKRPGSSVKVSCKASGNTFSNYHINWVRQAPGQGLQWMGGIIPILGRTNYAQNFQGRVTITTDESTNTAYMELTSLRSEDTAVYYCAREARDSFDFWGQGTMVTVSS
VL: ELVLTQPPSVSVAPGKTARITCGENNIGSKSVHWYQQKPGQAPVLVIYYDTDRPSGIPARFSGSNSGNTATLTISRVEAGDEADYYCQVWDSSSDQRVFGGGTELTVL
Regarding B10, the binding result in assay [1] is “no binding”; with human ADAMTS13, “binds”.

B11: scFv 2-302 (scFv, V domains shown)
VH: EVQLVQSGAEVKKPGSSVKVSCKASGGTFSSYTINWVRQAPGQGLEWMGRIIPILGIENYAQKFQGRVTISADKSTSTAYMELSSLRSDDTAVYYCARDQVFGAYWGPGTLVTVSS
VL: ELVLTQPPSVSVAPGQTAIITCGGSNIGTKSVHWYQQKSGQAPVLVVHDDAHRPSGIPERFSGSNSGNTATLTISRVEAGDEADYYCQVWESSSDHWVFGGGTKVTVL
Consider B11, for which, in the assay with human ADAMTS13, the binding result is listed as “binds”.

B12: scFv 3-302 (scFv, V domains shown)
VH: QVQLVQSGAEVKRPGSSVKVSCKASGNTFSNYHINWVRQAPGQGLQWMGGIIPILGRTNYAQNFQGRVTITTDESTNTAYMELTSLRSEDTAVYYCAREARDSFDFWGQGTMVTVSS
VL: ELVLTQPPSVSVSPGQTASITCSGDKLGHTYTSWYQQKPGQSPVLVIYQDNRRPSGLPERFSGSNSGNTATLTISRVEAGDEADYYCQVWESSSDHLVFGGGTELTVL
Turning to B12, the results for the binding result (in assay [1]; in the assay with human ADAMTS13) were “no binding” and “binds”, respectively.

B13: scFv 1-403 (scFv, V domains shown)
VH: QVQLQESGGGVVQPGRSLRLSCAASGFTFRNYAMHWVRQAPGKGLEWVAVISYDGGKEYYADSVKGRFTISRDNSKNTLYLQMNSLRAEDTAVYYCARDTFSYYDFWRAFDYWGQGTLVTVSS
VL: ELVMTQSPSSLSASVGDTVTITCRASQSLRGYLNWYQQKPGEAPKLLIYAASTLRAGVPPRFSGAGYETDFSLTISNLQLEDFATYYCQQSHNVPLTFGGGTKVEIK
Regarding B13, the binding result in the assay with human ADAMTS13 is “binds”.

B14: scFv 3-301 (scFv, V domains shown)
VH: EVQLVQSGAEVKKPGSSVKVSCKASGGTFSSYAISWVRQAPGQGLEWMGGIIPILGITNYAQKFQGRVTITADESTGAAYMELSSLASEDTAVYYCARDDTGRDDYFEYWGQGTLVTVSS
VL: ELVLTQPPSVSVSPGQTARITCSGDALPKQYAYWYQQKPGQAPVLVIYKDSERPSGIPERFSGSSSGTTVTLTISGVQAEDEADYYCQSADSNGTYKVFGGGTELTVL
For the molecule B14, the binding result in assay [1] is “no binding”.

B15: scFv 4-303 (scFv, V domains shown)
VH: QVQLVQSGAEVKKPGSSVKVSCKASGGTFSNYGISWVRQAPGQGLEWMGKIIPILGITNYAQKFQGRVTITADKSTSTAYMELSSLRSEDTAVYYCARGGGSYDFFDYWGQGTLVTVSS
VL: ELELTQPPSVSVAPGKAARLSCGGEDIGIKSVHWYQQKTGRAPVLVIYNDDDRPSGIPERFAGSNSGNTATLTISRVEAGDEADYYCEVWDSLTDRVVFGGGTKLTVL
For B15, the binding result with human ADAMTS13 was “binds”.
